This note sets out measurements from paper PMC2791442, “Three Dimensional Structure of the MqsR:MqsA Complex: A Novel TA Pair Comprised of a Toxin Homologous to RelE and an Antitoxin with Unique Properties” (PLoS Pathogens, 2009).

The target of data set [1] is T1, MqsR, his6-tag cleaved, co-expressed with MqsA-N (E. coli, UniProt Q46865 1-98).
T1 construct: MqsR (YgiU, b3022) toxin of Escherichia coli, 98 residues; 1-97 seen in the first complex of the crystal; also called YgiU; B3022; not shown: His6, N-terminal, cleaved
T1 sequence (looked up): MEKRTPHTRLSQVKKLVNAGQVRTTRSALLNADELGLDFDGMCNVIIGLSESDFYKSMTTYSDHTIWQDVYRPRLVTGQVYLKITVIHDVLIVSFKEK
In words: SEC + other: dynamic light scattering; co-expressed and co-purified complex on a size exclusion column (Superdex 75 26/60 for MqsR:MqsA-F); oligomeric state confirmed by dynamic light scattering. Conditions: both partners purified.

The target of data set [2] is T2, MqsR (his-tagged), co-expressed with full-length MqsA (E. coli, UniProt Q46865 1-98).
T2 construct: MqsR (YgiU, b3022) toxin of Escherichia coli, 98 residues; also called YgiU; B3022; not shown: His6, N-terminal, kept
T2 sequence (looked up): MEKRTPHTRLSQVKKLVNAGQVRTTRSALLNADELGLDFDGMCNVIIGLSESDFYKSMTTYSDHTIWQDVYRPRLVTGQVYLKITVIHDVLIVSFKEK
The description is as above. Conditions: both partners purified.

Data set [3] deals with the molecule itself. The description is as above.
Data set [4] concerns the molecule itself. Briefly: crystal structure; MqsA-F, 2.15 Å, molecular replacement; sitting drop at 4°C, 75 mM Bis-Tris pH 5.5, 150 mM MgCl2, 19% PEG3350; two molecules in the asymmetric unit.

B1: MqsA N-terminal domain (MqsA-N), untagged, co-expressed with MqsR (domain or fragment, E. coli, UniProt Q46864 1-76, looked up)
chain: MKCPVCHQGEMVSGIKDIPYTFRGRKTVLKGIHGLYCVHCEESIMNKEESDAFMAQVKAFRASVNAETVAPEFIVK
notes: MqsA (YgiT, b3021) antitoxin of Escherichia coli, N-terminal domain, residues 1-76; Untagged pCA21a vector; source: E. coli BL21 (DE3), co-expressed with MqsR, purified (his6-tag of MqsR, thrombin cleavage, subtraction his6-tag, SEC)
As usually defined, the stoichiometry N is the number of molecules, sites or subunits per partner or assembly. With B1, the “stoichiometry N” value in data set [1] is 1 MqsA-N per MqsR (1:1 heterodimer).

B2: Full-length MqsA (MqsA-F), untagged, co-expressed with MqsR (natural protein, E. coli, UniProt Q46864 1-131, looked up)
chain: MKCPVCHQGEMVSGIKDIPYTFRGRKTVLKGIHGLYCVHCEESIMNKEESDAFMAQVKAFRASVNAETVAPEFIVKVRKKLSLTQKEASEIFGGGVNAFSRYEKGNAQPHPSTIKLLRVLDKHPELLNEIR
notes: MqsA (YgiT, b3021) antitoxin of Escherichia coli, residues 1-131; Two copies stand in the MqsR:MqsA2:MqsR complex; also called YgiT; B3021; source: co-expressed with his-tagged MqsR, co-purified, SEC
Take B2: the “stoichiometry N” value in data set [2] is 1 MqsA-F per MqsR (2:2 complex). In addition, the binding result in data set [3] is listed as “binds”.

B3: Full-length MqsA (MqsA-F), his6-tag cleaved (natural protein, E. coli, UniProt Q46864 1-131, looked up)
chain: MKCPVCHQGEMVSGIKDIPYTFRGRKTVLKGIHGLYCVHCEESIMNKEESDAFMAQVKAFRASVNAETVAPEFIVKVRKKLSLTQKEASEIFGGGVNAFSRYEKGNAQPHPSTIKLLRVLDKHPELLNEIR
modifications: Gln108 methylated at N5
notes: MqsA (YgiT, b3021) antitoxin of Escherichia coli, residues 1-131; Modified pET28a with a TEV site; also called YgiT; B3021; source: E. coli One Shot BL21 (DE3), purified (his6-tag, TEV cleavage, subtraction his6-tag, SEC); not shown: His6, N-terminal, cleaved
As for B3, the binding result in data set [4] is recorded as “binds”.
